Test results published in patent US20100260668A1 (published 2010).
Several values for one entry are separate records, joined by “and”; a condition that tells them apart may be missing. Identical values can stand only once.

What was measured:
[1] = target: T1, insulin-like growth factor receptor (IGF1R) (human, UniProt P08069 31-1367); test: cell-based or functional assay
[2] = target: T1, insulin-like growth factor receptor …; test: cell-based or functional assay; remark: listed apart in the source
[3] = target: T1, insulin-like growth factor receptor …; test: cell-based or functional assay; remark: listed apart in the source
[4] = target: T2, IGF1 (UniProt P05019 49-118, limits assumed); test: cell-based or functional assay
[5] = target: T3, IGF2 (UniProt P01344 25-91, limits assumed); test: cell-based or functional assay
[6] = target: T2, IGF1; test: cell-based or functional assay; remark: listed apart in the source
[7] = target: T3, IGF2; test: cell-based or functional assay; remark: listed apart in the source
[8] = target: recombinant human VEGF165 (human, UniProt P15692-4 27-191); test: cell-based or functional assay
Chain of recombinant human VEGF165 (P15692 other isoform, or with tags, fused parts or gaps limits assumed): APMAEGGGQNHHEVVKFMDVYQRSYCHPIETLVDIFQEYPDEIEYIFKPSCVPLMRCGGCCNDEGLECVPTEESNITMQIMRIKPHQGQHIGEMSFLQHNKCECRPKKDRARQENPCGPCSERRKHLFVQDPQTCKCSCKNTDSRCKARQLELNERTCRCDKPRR

[9] = target: hIGF1 (human, UniProt P05019 49-118); test: cell-based or functional assay
[10] = target: IGF2 (UniProt P01344 25-91); test: cell-based or functional assay
[11] = target: T4, VEGF (VEGF 1-165 aa, R&D Systems 293-VE-010) (UniProt P15692 27-191); test: Direct bind ELISA, VEGF coated on plate; VEGF domain C-term., HC short/LC long
T4 construct: bought reagent; also called vascular endothelial growth factor
T4 sequence (P15692 other isoform, or with tags, fused parts or gaps limits assumed): as above

[12] = target: T4, VEGF (VEGF 1-165 aa, R&D Systems …); test: Direct bind ELISA, VEGF coated on plate; VEGF domain N-term., HC short/LC long
[13] = target: T4, VEGF (VEGF 1-165 aa, R&D Systems …); test: Direct bind ELISA, VEGF coated on plate; VEGF domain N-term., HC long/LC short
[14] = target: T5, ErbB3 (ErbB3 ECD/FC Chimera-His tag, R&D 348-RB-050) (UniProt P21860 20-643, limits assumed); test: direct bind ELISA, coated antigen; parent reference antibody
T5 construct: extracellular domain; Bought antigen coated on the ELISA plate

B1: AB011 (antibody, human IgG1, kappa, V domains shown)
VH: EVQLLESGGGLVQPGGSLRLSCTASGFTFSSYAMNWVRQAPGKGLEWVSAISGSGGTTFYADSVKGRFTISRDNSRTTLYLQMNSLRAEDTAVYYCAKDLGWSDSYYYYYGMDVWGQGTTVTVSS
VL: DIQMTQFPSSLSASVGDRVTITCRASQGIRNDLGWYQQKPGKAPKRLIYAASRLHRGVPSRFSGSGSGTEFTLTISSLQPEDFATYYCLQHNSYPCSFGQGTKLEIKR
H929, IGF1R line proliferation inhibition IC50 [1]: 0.1 nM
H929, IGF1R line proliferation inhibition, max [1]: 65 % max
A431, EGFR line proliferation inhibition IC50 [2]: > 67 nM
A431, EGFR line proliferation inhibition, max [2]: 5 % max
GEO, EGFR/IGF1R line proliferation inhibition IC50 [3]: > 67 nM
GEO, EGFR/IGF1R line proliferation inhibition, max [3]: 15 % max

B2: AB010 (antibody, human IgG1, lambda, V domains shown)
VH: QVQLVQSGAEVKKPGASVKVSCKASGYTFTSYDINWVRQATGQGLEWMGWMNPNSGNTGYAQKFQGRVTMTRNTSISTAYMELSSLRSEDTAVYYCARDPYYYYYGMDVWGQGTTVTVSS
VL: QSVLTQPPSVSAAPGQKVTISCSGSSSNIENNHVSWYQQLPGTAPKLLIYDNNKRPSGIPDRFSGSKSGTSATLGITGLQTGDEADYYCETWDTSLSAGRVFGGGTKLTVLG
H929, IGF1R line proliferation inhibition IC50 [4]: 1.6 nM
H929, IGF1R line proliferation inhibition, max [4]: 70 % max
H929, IGF1R line proliferation inhibition IC50 [5]: 1.6 nM
H929, IGF1R line proliferation inhibition, max [5]: 70 % max
A431, EGFR line proliferation inhibition IC50 [6]: > 67 nM
A431, EGFR line proliferation inhibition, max [6]: 10 % max
A431, EGFR line proliferation inhibition IC50 [7]: > 67 nM
A431, EGFR line proliferation inhibition, max [7]: 10 % max

B3: DVD041 (bispecific antibody, human IgG1, lambda)
heavy: not shown
light: DIQMTQSPSSLSASVGDRVTITCSASQDISNYLNWYQQKPGKAPKVLIYFTSSLHSGVPSRFSGSGSGTDFTLTISSLQPEDFATYYCQQYSTVPWTFGQGTKVEIKRTVAAPQSVLTQPPSVSAAPGQKVTISCSGSSSNIENNHVSWYQQLPGTAPKLLIYDNNKRPSGIPDRFSGSKSGTSATLGITGLQTGDEADYYCETWDTSLSAGRVFGGGTKLTVLGQPKAAPSVTLFPPSSEELQANKATLVCLISDFYPGAVTVAWKADSSPVKAGVETTTPSKQSNNKYAASSYLSLTPEQWKSHRSYSCQVTHEGSTVEKTVAPTECS
A431, EGFR line proliferation inhibition IC50 [8]: > 50 nM
A431, EGFR line proliferation inhibition, max [8]: 0%
A431, EGFR line proliferation inhibition IC50 [6]: > 50 nM
A431, EGFR line proliferation inhibition, max [6]: 0%
A431, EGFR line proliferation inhibition IC50 [7]: > 50 nM
A431, EGFR line proliferation inhibition, max [7]: 0%

B4: AB010 (antibody, human IgG1, lambda, V domains shown)
VH: QVQLVQSGAEVKKPGASVKVSCKASGYTFTSYDINWVRQATGQGLEWMGWMNPNSGNTGYAQKFQGRVTMTRNTSISTAYMELSSLRSEDTAVYYCARDPYYYYYGMDVWGQGTTVTVSS
VL: QSVLTQPPSVSAAPGQKVTISCSGSSSNIENNHVSWYQQLPGTAPKLLIYDNNKRPSGIPDRFSGSKSGTSATLGITGLQTGDEADYYCETWDTSLSAGRVFGGGTKLTVLG
pIGF1R Cellular Assay (hIGF1 Neutralization IC50 nM) [9]: 1.7 nM
pIGFR1 Cellular Assay (IGF2 induced IC50 nM) [10]: 0.3 nM

B5: DVD531 (bispecific antibody, human IgG1, kappa, lambda)
heavy: not shown
light: QAVVTQESALTTSPGETVTLTCRSSTGAVTTSNYANWVQEKPDHLFTGLIGGTNNRAPGVPARFSGSLIGDKAALTITGAQTEDEAIYFCALWYSNHWVFGGGTKLTVLGQPKAAPSVTLFPPDIQMTQSPSSLSASVGDRVTITCRASQDVSTAVAWYQQKPGKAPKLLIYSASFLYSGVPSRFSGSGSGTDFTLTISSLQPEDFATYYCQQSYTTPPTFGQGTKVEIKRTVAAPSVFIFPPSDEQLKSGTASVVCLLNNFYPREAKVQWKVDNALQSGNSQESVTEQDSKDSTYSLSSTLTLSKADYEKHKVYACEVTHQGLSSPVTKSFNRGEC
notes: DVD-Ig; N-term; AB073 (DLL4), C-term; AB070 (VEGF); HC linker short, LC linker long; also called DVD-Ig DVD531; DVD531H/DVD531L
EC50 [11]: 60.4 nM

B6: DVD532 (bispecific antibody, human IgG1, kappa, lambda)
heavy: not shown
light: DIQMTQSPSSLSASVGDRVTITCRASQDVSTAVAWYQQKPGKAPKLLIYSASFLYSGVPSRFSGSGSGTDFTLTISSLQPEDFATYYCQQSYTTPPTFGQGTKVEIKRTVAAPSVFIFPPQAVVTQESALTTSPGETVTLTCRSSTGAVTTSNYANWVQEKPDHLFTGLIGGTNNRAPGVPARFSGSLIGDKAALTITGAQTEDEAIYFCALWYSNHWVFGGGTKLTVLGQPKAAPSVTLFPPSSEELQANKATLVCLISDFYPGAVTVAWKADSSPVKAGVETTTPSKQSNNKYAASSYLSLTPEQWKSHRSYSCQVTHEGSTVEKTVAPTECS
notes: DVD-Ig; N-term; AB070 (VEGF), C-term; AB073 (DLL4); HC linker short, LC linker long; also called DVD-Ig DVD532; DVD532H/DVD532L
EC50 [12]: 28.9 nM

B7: DVD509 (bispecific antibody, human IgG1, kappa)
heavy: not shown
light: DIQMTQSSSYLSVSLGGRVTITCKASDHINNWLAWYQQKPGNAPRLLISGATSLETGVPSRFSGSGSGKDYTLSITSLQTEDVATYYCQQYWSIPLTFGAGTKLELKRTVAAPSVFIFPPDIQMTQSPSSLSASVGDRVTITCRASQVIRRSLAWYQQKPGKAPKLLIYAASNLASGVPSRFSGSGSGTDFTLTISSLQPEDFATYYCQQSNTSPLTFGQGTKVEIKRTVAAPSVFIFPPSDEQLKSGTASVVCLLNNFYPREAKVQWKVDNALQSGNSQESVTEQDSKDSTYSLSSTLTLSKADYEKHKVYACEVTHQGLSSPVTKSFNRGEC
notes: DVD-Ig; N-term; AB072 (DLL4), C-term; AB071 (VEGF); HC linker short, LC linker long; also called DVD-Ig DVD509; DVD509H/DVD509L
EC50 [11]: 121 nM

B8: DVD510 (bispecific antibody, human IgG1, kappa)
heavy: not shown
light: DIQMTQSPSSLSASVGDRVTITCRASQVIRRSLAWYQQKPGKAPKLLIYAASNLASGVPSRFSGSGSGTDFTLTISSLQPEDFATYYCQQSNTSPLTFGQGTKVEIKRTVAAPSVFIFPPDIQMTQSSSYLSVSLGGRVTITCKASDHINNWLAWYQQKPGNAPRLLISGATSLETGVPSRFSGSGSGKDYTLSITSLQTEDVATYYCQQYWSIPLTFGAGTKLELKRTVAAPSVFIFPPSDEQLKSGTASVVCLLNNFYPREAKVQWKVDNALQSGNSQESVTEQDSKDSTYSLSSTLTLSKADYEKHKVYACEVTHQGLSSPVTKSFNRGEC
notes: DVD-Ig; N-term; AB071 (VEGF), C-term; AB072 (DLL4); HC linker short, LC linker long; also called DVD-Ig DVD510; DVD510H/DVD510L
EC50 [12]: 23.9 nM

B9: DVD502 (bispecific antibody, human IgG1, kappa)
heavy: not shown
light: DIQMTQSPSSLSASVGDRVTITCRASQDVSTAVAWYQQKPGKAPKLLIYSASFLYSGVPSRFSGSGSGTDFTLTISSLQPEDFATYYCQQSYTTPPTFGQGTKVEIKRTVAAPDIQMTQSSSYLSVSLGGRVTITCKASDHINNWLAWYQQKPGNAPRLLISGATSLETGVPSRFSGSGSGKDYTLSITSLQTEDVATYYCQQYWSIPLTFGAGTKLELKRTVAAPSVFIFPPSDEQLKSGTASVVCLLNNFYPREAKVQWKVDNALQSGNSQESVTEQDSKDSTYSLSSTLTLSKADYEKHKVYACEVTHQGLSSPVTKSFNRGEC
notes: DVD-Ig; N-term; AB070 (VEGF), C-term; AB072 (DLL4); HC linker long, LC linker short; also called DVD-Ig DVD502; DVD502H/DVD502L
EC50 [13]: 3.25 nM

B10: DVD507 (bispecific antibody, human IgG1, kappa, L234A L235A)
heavy: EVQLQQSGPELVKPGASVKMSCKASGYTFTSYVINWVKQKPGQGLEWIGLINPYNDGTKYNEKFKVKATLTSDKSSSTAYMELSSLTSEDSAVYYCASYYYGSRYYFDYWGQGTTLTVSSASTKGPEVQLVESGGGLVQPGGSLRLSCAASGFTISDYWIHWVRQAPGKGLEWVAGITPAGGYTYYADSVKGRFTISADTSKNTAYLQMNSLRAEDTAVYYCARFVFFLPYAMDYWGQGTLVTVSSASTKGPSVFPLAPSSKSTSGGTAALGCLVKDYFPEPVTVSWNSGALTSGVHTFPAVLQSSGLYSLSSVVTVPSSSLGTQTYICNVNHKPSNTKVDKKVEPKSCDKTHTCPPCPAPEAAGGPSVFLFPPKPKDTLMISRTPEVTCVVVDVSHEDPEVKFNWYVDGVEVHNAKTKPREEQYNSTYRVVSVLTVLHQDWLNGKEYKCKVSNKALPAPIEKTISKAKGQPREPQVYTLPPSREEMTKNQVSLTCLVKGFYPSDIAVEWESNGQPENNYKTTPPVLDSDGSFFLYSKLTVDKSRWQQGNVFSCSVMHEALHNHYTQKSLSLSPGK
light: DIQMTQSSSYLSVSLGGRVTITCKASDHINNWLAWYQQKPGNAPRLLISGATSLETGVPSRFSGSGSGKDYTLSITSLQTEDVATYYCQQYWSIPLTFGAGTKLELKRTVAAPSVFIFPPDIQMTQSPSSLSASVGDRVTITCRASQDVSTAVAWYQQKPGKAPKLLIYSASFLYSGVPSRFSGSGSGTDFTLTISSLQPEDFATYYCQQSYTTPPTFGQGTKVEIKRTVAAPSVFIFPPSDEQLKSGTASVVCLLNNFYPREAKVQWKVDNALQSGNSQESVTEQDSKDSTYSLSSTLTLSKADYEKHKVYACEVTHQGLSSPVTKSFNRGEC
notes: DVD-Ig; N-term; AB072 (DLL4), C-term; AB070 (VEGF); HC linker short, LC linker long; also called DVD-Ig DVD507; DVD507H/DVD507L
EC50 [11]: 34.9 nM

B11: DVD508 (bispecific antibody, human IgG1, kappa)
heavy: not shown
light: DIQMTQSPSSLSASVGDRVTITCRASQDVSTAVAWYQQKPGKAPKLLIYSASFLYSGVPSRFSGSGSGTDFTLTISSLQPEDFATYYCQQSYTTPPTFGQGTKVEIKRTVAAPSVFIFPPDIQMTQSSSYLSVSLGGRVTITCKASDHINNWLAWYQQKPGNAPRLLISGATSLETGVPSRFSGSGSGKDYTLSITSLQTEDVATYYCQQYWSIPLTFGAGTKLELKRTVAAPSVFIFPPSDEQLKSGTASVVCLLNNFYPREAKVQWKVDNALQSGNSQESVTEQDSKDSTYSLSSTLTLSKADYEKHKVYACEVTHQGLSSPVTKSFNRGEC
notes: DVD-Ig; N-term; AB070 (VEGF), C-term; AB072 (DLL4); HC linker short, LC linker long; also called DVD-Ig DVD508; DVD508H/DVD508L
EC50 [12]: 7.88 nM

B12: AB062 (antibody, human IgG1, kappa, V domains shown)
VH: QVQLQQWGAGLLKPSETLSLTCAVYGGSFSGYYWSWIRQPPGKGLEWIGEINHSGSTNYNPSLKSRVTISVETSKNQFSLKLSSVTAADTAVYYCARDKWTWYFDLWGRGTLVTVSS
VL: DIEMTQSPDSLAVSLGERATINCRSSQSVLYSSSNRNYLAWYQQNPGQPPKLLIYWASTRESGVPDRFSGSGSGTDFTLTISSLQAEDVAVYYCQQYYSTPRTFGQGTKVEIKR
notes: also called AB062VH
EC50 [14]: 0.75 nM and 0.97 nM and 1.6 nM

B13: AB063 (antibody, human IgG1, kappa, V domains shown)
VH: EVQLVESGGGLVQPGGSLRLSCAASGFTFSIYSMNWVRQAPGKGLEWVSYISSSSSTIYYADSVKGRFTISRDNAKNSLYLQMNSLRDEDTAVYYCARDRGDFDAFDIWGQGTMVTVSS
VL: DIQMTQSPSSLSASVGDRVTITCQASQDITNYLNWYQQKPGKAPKLLIYDASNLETGVPSRFSGSGSGTDFTFTISSLQPEDIATYNCQQCENFPITFGQGTRLEIKR
notes: also called AB063VH
EC50 [14]: 0.87 nM and 0.92 nM and 1.1 nM

B14: AB067 (antibody, human IgG1, lambda, L234A L235A, V domains shown)
VH: EVQLLESGGGLVQPGGSLRLSCAASGFTFSHYVMAWVRQAPGKGLEWVSSISSSGGWTLYADSVKGRFTISRDNSKNTLYLQMNSLRAEDTAVYYCTRGLKMATIFDYWGQGTLVTVSS
VL: QSALTQPASVSGSPGQSITISCTGTSSDVGSYNVVSWYQQHPGKAPKLIIYEVSQRPSGVSNRFSGSKSGNTASLTISGLQTEDEADYYCCSYAGSSIFVIFGGGTKVTVLG
notes: also called AB067VH
EC50 [14]: 1.78 nM and 2.2 nM and 1.12 nM
